# Experimental data reported in patent publication US20190233495A1 (Sanofi, published 2019).
# Non-standard residues stand in square brackets, D forms with d. Phe(4-F) = N[C@@H](Cc1ccc(F)cc1)C(=O)O; αMeL = CC(C)C[C@](C)(N)C(=O)O; Nle = CCCC[C@H](N)C(=O)O; Aib = CC(C)(N)C(=O)O
# T1: RXFP1 receptor (UniProt Q9HBX9 1-757, limits assumed)
# T1 sequence (looked up): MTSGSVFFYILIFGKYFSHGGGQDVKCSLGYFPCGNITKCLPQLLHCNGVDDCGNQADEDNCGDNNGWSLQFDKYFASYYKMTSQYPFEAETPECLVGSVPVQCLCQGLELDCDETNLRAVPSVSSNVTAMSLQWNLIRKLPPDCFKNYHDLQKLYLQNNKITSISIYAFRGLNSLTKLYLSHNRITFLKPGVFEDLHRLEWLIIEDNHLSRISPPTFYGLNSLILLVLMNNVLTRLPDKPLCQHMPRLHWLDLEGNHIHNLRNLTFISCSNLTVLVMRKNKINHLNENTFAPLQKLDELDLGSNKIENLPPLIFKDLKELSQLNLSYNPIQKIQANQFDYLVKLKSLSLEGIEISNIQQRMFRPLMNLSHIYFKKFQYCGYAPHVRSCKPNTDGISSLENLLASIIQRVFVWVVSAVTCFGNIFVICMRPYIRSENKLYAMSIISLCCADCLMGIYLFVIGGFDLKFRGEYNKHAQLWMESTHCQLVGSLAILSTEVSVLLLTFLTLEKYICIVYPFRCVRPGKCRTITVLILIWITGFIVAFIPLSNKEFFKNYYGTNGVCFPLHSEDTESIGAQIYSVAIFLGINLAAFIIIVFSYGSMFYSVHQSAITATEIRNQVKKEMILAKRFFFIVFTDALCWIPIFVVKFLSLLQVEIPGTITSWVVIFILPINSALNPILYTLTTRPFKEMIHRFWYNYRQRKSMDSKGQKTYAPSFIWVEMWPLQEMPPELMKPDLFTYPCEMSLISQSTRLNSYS
# B1: SEQ ID NO: 52 (peptide)
# peptide: Ac-LEGREKVRAQI[Aib][Aib]EG[Nle]SQWS[Aib]RRR-NH2
# SMILES: CCCC[C@H](NC(=O)CNC(=O)[C@H](CCC(=O)O)NC(=O)C(C)(C)NC(=O)C(C)(C)NC(=O)[C@@H](NC(=O)[C@H](CCC(N)=O)NC(=O)[C@H](C)NC(=O)[C@H](CCCNC(=N)N)NC(=O)[C@@H](NC(=O)[C@H](CCCCN)NC(=O)[C@H](CCC(=O)O)NC(=O)[C@H](CCCNC(=N)N)NC(=O)CNC(=O)[C@H](CCC(=O)O)NC(=O)[C@H](CC(C)C)NC(C)=O)C(C)C)[C@@H](C)CC)C(=O)N[C@@H](CO)C(=O)N[C@@H](CCC(N)=O)C(=O)N[C@@H](Cc1c[nH]c2ccccc12)C(=O)N[C@@H](CO)C(=O)NC(C)(C)C(=O)N[C@@H](CCCNC(=N)N)C(=O)N[C@@H](CCCNC(=N)N)C(=O)N[C@@H](CCCNC(=N)N)C(N)=O
# B2: SEQ ID NO: 54 (peptide)
# peptide: Ac-LEGREKVRAQI[Aib][Aib]EGQSTWS[Aib]RKK-NH2
# SMILES: CC[C@H](C)[C@H](NC(=O)[C@H](CCC(N)=O)NC(=O)[C@H](C)NC(=O)[C@H](CCCNC(=N)N)NC(=O)[C@@H](NC(=O)[C@H](CCCCN)NC(=O)[C@H](CCC(=O)O)NC(=O)[C@H](CCCNC(=N)N)NC(=O)CNC(=O)[C@H](CCC(=O)O)NC(=O)[C@H](CC(C)C)NC(C)=O)C(C)C)C(=O)NC(C)(C)C(=O)NC(C)(C)C(=O)N[C@@H](CCC(=O)O)C(=O)NCC(=O)N[C@@H](CCC(N)=O)C(=O)N[C@@H](CO)C(=O)N[C@H](C(=O)N[C@@H](Cc1c[nH]c2ccccc12)C(=O)N[C@@H](CO)C(=O)NC(C)(C)C(=O)N[C@@H](CCCNC(=N)N)C(=O)N[C@@H](CCCCN)C(=O)N[C@@H](CCCCN)C(N)=O)[C@@H](C)O
# B3: SEQ ID NO: 56 (peptide)
# peptide: Ac-[αMeL]EGREKVRAK(Ac)I[Aib][Aib]EG[Nle]STWS[Aib]RKK(Ac)-NH2
# SMILES: CCCC[C@H](NC(=O)CNC(=O)[C@H](CCC(=O)O)NC(=O)C(C)(C)NC(=O)C(C)(C)NC(=O)[C@@H](NC(=O)[C@H](CCCCNC(C)=O)NC(=O)[C@H](C)NC(=O)[C@H](CCCNC(=N)N)NC(=O)[C@@H](NC(=O)[C@H](CCCCN)NC(=O)[C@H](CCC(=O)O)NC(=O)[C@H](CCCNC(=N)N)NC(=O)CNC(=O)[C@H](CCC(=O)O)NC(=O)[C@](C)(CC(C)C)NC(C)=O)C(C)C)[C@@H](C)CC)C(=O)N[C@@H](CO)C(=O)N[C@H](C(=O)N[C@@H](Cc1c[nH]c2ccccc12)C(=O)N[C@@H](CO)C(=O)NC(C)(C)C(=O)N[C@@H](CCCNC(=N)N)C(=O)N[C@@H](CCCCN)C(=O)N[C@@H](CCCCNC(C)=O)C(N)=O)[C@@H](C)O
# B4: SEQ ID NO: 53 (peptide)
# peptide: Ac-LEGREKVRAQI[Aib][Aib]EG[Nle]STYS[Aib]RKK-NH2
# SMILES: CCCC[C@H](NC(=O)CNC(=O)[C@H](CCC(=O)O)NC(=O)C(C)(C)NC(=O)C(C)(C)NC(=O)[C@@H](NC(=O)[C@H](CCC(N)=O)NC(=O)[C@H](C)NC(=O)[C@H](CCCNC(=N)N)NC(=O)[C@@H](NC(=O)[C@H](CCCCN)NC(=O)[C@H](CCC(=O)O)NC(=O)[C@H](CCCNC(=N)N)NC(=O)CNC(=O)[C@H](CCC(=O)O)NC(=O)[C@H](CC(C)C)NC(C)=O)C(C)C)[C@@H](C)CC)C(=O)N[C@@H](CO)C(=O)N[C@H](C(=O)N[C@@H](Cc1ccc(O)cc1)C(=O)N[C@@H](CO)C(=O)NC(C)(C)C(=O)N[C@@H](CCCNC(=N)N)C(=O)N[C@@H](CCCCN)C(=O)N[C@@H](CCCCN)C(N)=O)[C@@H](C)O
# B5: SEQ ID NO: 57 (peptide)
# peptide: Ac-LEGREKVRAQI[Aib][Aib]EGQSTFS[Aib]RKK-NH2
# SMILES: CC[C@H](C)[C@H](NC(=O)[C@H](CCC(N)=O)NC(=O)[C@H](C)NC(=O)[C@H](CCCNC(=N)N)NC(=O)[C@@H](NC(=O)[C@H](CCCCN)NC(=O)[C@H](CCC(=O)O)NC(=O)[C@H](CCCNC(=N)N)NC(=O)CNC(=O)[C@H](CCC(=O)O)NC(=O)[C@H](CC(C)C)NC(C)=O)C(C)C)C(=O)NC(C)(C)C(=O)NC(C)(C)C(=O)N[C@@H](CCC(=O)O)C(=O)NCC(=O)N[C@@H](CCC(N)=O)C(=O)N[C@@H](CO)C(=O)N[C@H](C(=O)N[C@@H](Cc1ccccc1)C(=O)N[C@@H](CO)C(=O)NC(C)(C)C(=O)N[C@@H](CCCNC(=N)N)C(=O)N[C@@H](CCCCN)C(=O)N[C@@H](CCCCN)C(N)=O)[C@@H](C)O
# B6: SEQ ID NO: 59 (peptide)
# peptide: Ac-LEGREKVRAQI[Aib][Aib]EGQST[Phe(4-F)]S[Aib]RKK-NH2
# SMILES: CC[C@H](C)[C@H](NC(=O)[C@H](CCC(N)=O)NC(=O)[C@H](C)NC(=O)[C@H](CCCNC(=N)N)NC(=O)[C@@H](NC(=O)[C@H](CCCCN)NC(=O)[C@H](CCC(=O)O)NC(=O)[C@H](CCCNC(=N)N)NC(=O)CNC(=O)[C@H](CCC(=O)O)NC(=O)[C@H](CC(C)C)NC(C)=O)C(C)C)C(=O)NC(C)(C)C(=O)NC(C)(C)C(=O)N[C@@H](CCC(=O)O)C(=O)NCC(=O)N[C@@H](CCC(N)=O)C(=O)N[C@@H](CO)C(=O)N[C@H](C(=O)N[C@@H](Cc1ccc(F)cc1)C(=O)N[C@@H](CO)C(=O)NC(C)(C)C(=O)N[C@@H](CCCNC(=N)N)C(=O)N[C@@H](CCCCN)C(=O)N[C@@H](CCCCN)C(N)=O)[C@@H](C)O
# B7: SEQ ID NO: 58 (peptide)
# peptide: Ac-LEGREKVRAQI[Aib][Aib]EGQSTYS[Aib]RKK-NH2
# SMILES: CC[C@H](C)[C@H](NC(=O)[C@H](CCC(N)=O)NC(=O)[C@H](C)NC(=O)[C@H](CCCNC(=N)N)NC(=O)[C@@H](NC(=O)[C@H](CCCCN)NC(=O)[C@H](CCC(=O)O)NC(=O)[C@H](CCCNC(=N)N)NC(=O)CNC(=O)[C@H](CCC(=O)O)NC(=O)[C@H](CC(C)C)NC(C)=O)C(C)C)C(=O)NC(C)(C)C(=O)NC(C)(C)C(=O)N[C@@H](CCC(=O)O)C(=O)NCC(=O)N[C@@H](CCC(N)=O)C(=O)N[C@@H](CO)C(=O)N[C@H](C(=O)N[C@@H](Cc1ccc(O)cc1)C(=O)N[C@@H](CO)C(=O)NC(C)(C)C(=O)N[C@@H](CCCNC(=N)N)C(=O)N[C@@H](CCCCN)C(=O)N[C@@H](CCCCN)C(N)=O)[C@@H](C)O
# B8: SEQ ID NO: 55 (peptide)
# peptide: Ac-LEGREKVRAQI[Aib][Aib]EG[Nle]SRWS[Aib]RRR-NH2
# SMILES: CCCC[C@H](NC(=O)CNC(=O)[C@H](CCC(=O)O)NC(=O)C(C)(C)NC(=O)C(C)(C)NC(=O)[C@@H](NC(=O)[C@H](CCC(N)=O)NC(=O)[C@H](C)NC(=O)[C@H](CCCNC(=N)N)NC(=O)[C@@H](NC(=O)[C@H](CCCCN)NC(=O)[C@H](CCC(=O)O)NC(=O)[C@H](CCCNC(=N)N)NC(=O)CNC(=O)[C@H](CCC(=O)O)NC(=O)[C@H](CC(C)C)NC(C)=O)C(C)C)[C@@H](C)CC)C(=O)N[C@@H](CO)C(=O)N[C@@H](CCCNC(=N)N)C(=O)N[C@@H](Cc1c[nH]c2ccccc12)C(=O)N[C@@H](CO)C(=O)NC(C)(C)C(=O)N[C@@H](CCCNC(=N)N)C(=O)N[C@@H](CCCNC(=N)N)C(=O)N[C@@H](CCCNC(=N)N)C(N)=O
# B9: SEQ ID NO: 6 (peptide)
# peptide: H-LEGREKVRAQI[Aib]IEGMSKWSKRKK-NH2
# SMILES: CC[C@H](C)[C@H](NC(=O)[C@H](CCC(N)=O)NC(=O)[C@H](C)NC(=O)[C@H](CCCNC(=N)N)NC(=O)[C@@H](NC(=O)[C@H](CCCCN)NC(=O)[C@H](CCC(=O)O)NC(=O)[C@H](CCCNC(=N)N)NC(=O)CNC(=O)[C@H](CCC(=O)O)NC(=O)[C@@H](N)CC(C)C)C(C)C)C(=O)NC(C)(C)C(=O)N[C@H](C(=O)N[C@@H](CCC(=O)O)C(=O)NCC(=O)N[C@@H](CCSC)C(=O)N[C@@H](CO)C(=O)N[C@@H](CCCCN)C(=O)N[C@@H](Cc1c[nH]c2ccccc12)C(=O)N[C@@H](CO)C(=O)N[C@@H](CCCCN)C(=O)N[C@@H](CCCNC(=N)N)C(=O)N[C@@H](CCCCN)C(=O)N[C@@H](CCCCN)C(N)=O)[C@@H](C)CC
# Biological target: T1, RXFP1 receptor
# Assay: cell-based or functional assay
Binder,cAMP assay in OVCAR 5 cells EC50,cAMP assay in OVCAR 5 cells Emax
B1,9.15 nM,94%
B2,22 nM,
B3,12.3 nM,95%
B4,76.2 nM,75%
B5,24.4 nM,91%
B6,29.8 nM,86%
B7,41 nM,93%
B8,4.9 nM,88%
B9,46.3 nM,97%
